Assay results from patent publication US20220112276A1 (Janssen / Centocor, published 2022).

T1: mouse pIgR extracellular domain (ECD) (mouse, UniProt O70570 19-645)
T1 construct: Bought from R&D Systems (Cat 2800-PG-050); also called mpIgR ECD
T1 sequence: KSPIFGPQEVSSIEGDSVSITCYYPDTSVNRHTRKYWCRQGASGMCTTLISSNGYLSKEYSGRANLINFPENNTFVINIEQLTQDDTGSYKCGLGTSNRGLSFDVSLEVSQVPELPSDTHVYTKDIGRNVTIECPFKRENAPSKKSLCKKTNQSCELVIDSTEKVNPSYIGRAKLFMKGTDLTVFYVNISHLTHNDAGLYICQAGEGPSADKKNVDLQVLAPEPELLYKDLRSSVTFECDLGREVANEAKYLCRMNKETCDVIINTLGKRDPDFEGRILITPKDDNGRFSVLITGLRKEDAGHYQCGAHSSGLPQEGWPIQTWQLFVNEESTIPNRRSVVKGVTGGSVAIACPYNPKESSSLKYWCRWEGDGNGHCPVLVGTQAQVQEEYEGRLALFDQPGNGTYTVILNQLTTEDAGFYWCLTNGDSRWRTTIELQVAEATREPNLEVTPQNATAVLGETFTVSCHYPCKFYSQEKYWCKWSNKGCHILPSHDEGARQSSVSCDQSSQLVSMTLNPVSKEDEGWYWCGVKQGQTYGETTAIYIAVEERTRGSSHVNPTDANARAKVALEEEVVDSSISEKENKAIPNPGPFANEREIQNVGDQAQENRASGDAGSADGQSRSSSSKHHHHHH

T2: rat pIgR extracellular domain (rat, UniProt P15083 19-643)
T2 construct: extracellular domain
T2 sequence (looked up): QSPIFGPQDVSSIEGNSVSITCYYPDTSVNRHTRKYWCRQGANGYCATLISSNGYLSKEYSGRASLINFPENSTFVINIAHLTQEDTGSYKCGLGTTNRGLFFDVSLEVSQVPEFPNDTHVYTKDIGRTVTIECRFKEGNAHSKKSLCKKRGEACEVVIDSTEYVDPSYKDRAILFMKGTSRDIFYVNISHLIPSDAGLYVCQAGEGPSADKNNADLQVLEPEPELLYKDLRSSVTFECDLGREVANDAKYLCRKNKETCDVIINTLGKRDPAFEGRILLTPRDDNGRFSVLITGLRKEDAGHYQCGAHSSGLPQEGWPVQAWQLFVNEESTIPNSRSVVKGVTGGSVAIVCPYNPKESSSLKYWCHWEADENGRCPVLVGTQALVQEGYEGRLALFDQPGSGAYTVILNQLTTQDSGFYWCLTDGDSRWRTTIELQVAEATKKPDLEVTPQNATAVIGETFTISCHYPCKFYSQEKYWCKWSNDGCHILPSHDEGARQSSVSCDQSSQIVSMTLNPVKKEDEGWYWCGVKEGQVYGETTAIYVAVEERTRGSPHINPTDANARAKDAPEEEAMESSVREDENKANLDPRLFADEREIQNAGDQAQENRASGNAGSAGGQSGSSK


How the values were obtained:
Test in all cases: SPR, VHH captured by anti-Fc, ECD analyte
[1] = target: T3, human pIgR extracellular domain (ECD) (human, UniProt P01833 19-638)
T3 construct: Bought from R&D Systems (Cat 2717-PG-050); also called hpIgR ECD
In short: (§1)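 Single-cycle kinetics: ECD analyte from 30 nM, 3-fold series, low to high, with 30 min off-rate monitoring, over VHH captured at 0.5 ug/ml (~200-300 RU). HBSP plus 100 ug/ml BSA at 30 μL/min. Reference cell and buffer blank subtracted; global 1:1 Langmuir fit gave kon, koff, KD.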

[2] = target: T1, mouse pIgR extracellular domain (ECD)
In short: as §1

[3] = target: T4, cynomolgus monkey pIgR extracellular domain (cynomolgus monkey, UniProt A0A2K5WMU9 19-638)
T4 construct: extracellular domain
In short: as §1

[4] = target: T2, rat pIgR extracellular domain
In short: as §1

T3 sequence (P01833 other isoform, or with tags, fused parts or gaps): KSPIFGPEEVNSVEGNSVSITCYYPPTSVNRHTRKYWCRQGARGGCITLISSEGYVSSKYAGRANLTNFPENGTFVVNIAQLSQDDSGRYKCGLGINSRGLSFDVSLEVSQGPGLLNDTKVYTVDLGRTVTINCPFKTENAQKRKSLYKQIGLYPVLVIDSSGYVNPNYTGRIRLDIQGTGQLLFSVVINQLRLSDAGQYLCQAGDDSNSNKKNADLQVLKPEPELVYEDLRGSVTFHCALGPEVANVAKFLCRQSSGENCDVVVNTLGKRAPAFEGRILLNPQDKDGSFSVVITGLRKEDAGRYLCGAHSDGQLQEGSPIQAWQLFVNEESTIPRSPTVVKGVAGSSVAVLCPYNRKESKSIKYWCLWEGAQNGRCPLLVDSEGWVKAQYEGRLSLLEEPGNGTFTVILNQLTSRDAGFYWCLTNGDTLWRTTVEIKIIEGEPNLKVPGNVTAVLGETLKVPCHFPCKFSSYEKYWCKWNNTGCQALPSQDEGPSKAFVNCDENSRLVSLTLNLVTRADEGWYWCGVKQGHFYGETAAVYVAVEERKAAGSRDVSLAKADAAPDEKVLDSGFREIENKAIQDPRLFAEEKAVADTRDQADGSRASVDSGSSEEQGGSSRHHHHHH
T4 sequence (A0A2K5WMU9 entry or part of it): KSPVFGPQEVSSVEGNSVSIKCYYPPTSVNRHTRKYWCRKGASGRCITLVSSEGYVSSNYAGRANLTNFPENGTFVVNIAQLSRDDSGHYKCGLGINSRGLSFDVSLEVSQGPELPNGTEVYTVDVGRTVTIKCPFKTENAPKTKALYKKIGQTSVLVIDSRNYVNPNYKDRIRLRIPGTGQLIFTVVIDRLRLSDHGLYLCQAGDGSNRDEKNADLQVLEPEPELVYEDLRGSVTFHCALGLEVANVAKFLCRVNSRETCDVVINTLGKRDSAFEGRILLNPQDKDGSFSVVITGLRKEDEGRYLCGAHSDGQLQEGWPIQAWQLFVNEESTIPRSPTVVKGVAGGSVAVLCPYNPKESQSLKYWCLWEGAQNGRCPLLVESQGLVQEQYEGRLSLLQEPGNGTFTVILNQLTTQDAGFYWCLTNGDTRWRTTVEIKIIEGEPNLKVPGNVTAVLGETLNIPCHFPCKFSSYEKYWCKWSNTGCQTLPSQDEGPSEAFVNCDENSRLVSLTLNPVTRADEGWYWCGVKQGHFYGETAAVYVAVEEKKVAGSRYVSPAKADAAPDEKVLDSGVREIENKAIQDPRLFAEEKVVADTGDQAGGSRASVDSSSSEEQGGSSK

| Kd [1] | Kd [2] | Kd [3] | Kd [4] | Binder |
| --- | --- | --- | --- | --- |
| 29 nM | 2.26 nM | 112 nM | 9.23 nM | 01A06R3LS VHH Mono-Fc (Fc fusion) EVQLVESGGGVVQAEDSLRLSCAASGLPFSSSRMGWFRQAPGKEREFVAAIGWSGRSTYKYYADSVKGRFTVSGDNAKKTLDLQMKDLKPEDTAVYYCAAHPDYYGDPRTSGAYRYWGQGTQVTVSSSPAPELLGGPSVFLFPPKPKDTLMISRTPEVTCVVVDVSHEDPEVKFNWYVDGVEVHNAKTKPREEQYNSTYRVVSVLTVLHQDWLNGKEYKCKVSNKALPAPIEKTISKAKGQPREPQVYTKPPSREEMTKNQVSLSCLVKGFYPSDIAVEWESNGQPENNYKTTVPVLDSDGSFRLASYLTVDKSRWQQGNVFSCSVMHEALHNHYTQKSLSLSPGK |
| 58.7 nM | 3.48 nM | 138 nM | 8.51 nM | 01B07R3L VHH Mono-Fc (Fc fusion) EVQLVESGGGVVQAEDSLRLSCAASGLPFSSSRMGWFRQVPGKEREFVAAIGWSGRSTYRYYDDSVKGRFTVSGDNAKNTLDLQMKGLKPEDTAVYYCAADPNYYGDVRTSGTYQYWGQGTQVTVSSSPAPELLGGPSVFLFPPKPKDTLMISRTPEVTCVVVDVSHEDPEVKFNWYVDGVEVHNAKTKPREEQYNSTYRVVSVLTVLHQDWLNGKEYKCKVSNKALPAPIEKTISKAKGQPREPQVYTKPPSREEMTKNQVSLSCLVKGFYPSDIAVEWESNGQPENNYKTTVPVLDSDGSFRLASYLTVDKSRWQQGNVFSCSVMHEALHNHYTQKSLSLSPGK |
| 0.094 nM | 9.02 nM | 16.5 nM | 1.83 nM | 03C05R3 VHH Mono-Fc (Fc fusion) EVQLVESGGGLVKAEGSLRLSCVASTSIASINVMGWYRQAPGKERELVARISGGGITHYAESVEGRFTISRDNAKNTVHLQMNGLKPEDTAAYYCKADVFASSGHVTTYWGQGTLVTVSSSPAPELLGGPSVFLFPPKPKDTLMISRTPEVTCVVVDVSHEDPEVKFNWYVDGVEVHNAKTKPREEQYNSTYRVVSVLTVLHQDWLNGKEYKCKVSNKALPAPIEKTISKAKGQPREPQVYTKPPSREEMTKNQVSLSCLVKGFYPSDIAVEWESNGQPENNYKTTVPVLDSDGSFRLASYLTVDKSRWQQGNVFSCSVMHEALHNHYTQKSLSLSPGK |
| 26.2 nM | 1.57 nM | 34.4 nM | 8.05 nM | 01F03R2LS VHH Mono-Fc (Fc fusion) EVQLVESGGGLVQAGDSLRLSCAASGRTGSSGAMGWFRQGPGKEREFVAALMWRNTVTYKYYEDSVKGRFTISRDNAKNTAYLQMNSLKPEDTAVYYCAADPDTYGDPRNSGAYDYWGQGTLVTVSSSPAPELLGGPSVFLFPPKPKDTLMISRTPEVTCVVVDVSHEDPEVKFNWYVDGVEVHNAKTKPREEQYNSTYRVVSVLTVLHQDWLNGKEYKCKVSNKALPAPIEKTISKAKGQPREPQVYTKPPSREEMTKNQVSLSCLVKGFYPSDIAVEWESNGQPENNYKTTVPVLDSDGSFRLASYLTVDKSRWQQGNVFSCSVMHEALHNHYTQKSLSLSPGK |
| 21.4 nM | 4.76 nM | 23 nM | 14.1 nM | 01C12R2 VHH Mono-Fc (Fc fusion) EVQLVESGGGLVQAGGSLRLSCAASGRTFGSYSMGWFRQAPGKEREFVGAISWSGSSTYKYYEDSVKGRFTISRDNAKNTVPLQMNSLKPEDTGVYFCGGTMERRDPRRTSAYDYWGQGTLVTVSSSPAPELLGGPSVFLFPPKPKDTLMISRTPEVTCVVVDVSHEDPEVKFNWYVDGVEVHNAKTKPREEQYNSTYRVVSVLTVLHQDWLNGKEYKCKVSNKALPAPIEKTISKAKGQPREPQVYTKPPSREEMTKNQVSLSCLVKGFYPSDIAVEWESNGQPENNYKTTVPVLDSDGSFRLASYLTVDKSRWQQGNVFSCSVMHEALHNHYTQKSLSLSPGK |
| 1.05 nM | 586 nM | 219 nM | 116 nM | 01B08R2 VHH Mono-Fc (Fc fusion) EVQLVESGGRLVQAGGSLRLSCAASGLTRSDYAMGWFRQAPGKEREFVATLKWSEGSRFMYRAEDVKGRFTISSGAAKTTVWLDMDALNPEDTAVYYCAAGFNVGFVRRASEYNFWGQGTLVTVSSSPAPELLGGPSVFLFPPKPKDTLMISRTPEVTCVVVDVSHEDPEVKFNWYVDGVEVHNAKTKPREEQYNSTYRVVSVLTVLHQDWLNGKEYKCKVSNKALPAPIEKTISKAKGQPREPQVYTKPPSREEMTKNQVSLSCLVKGFYPSDIAVEWESNGQPENNYKTTVPVLDSDGSFRLASYLTVDKSRWQQGNVFSCSVMHEALHNHYTQKSLSLSPGK |
| 13.8 nM | 9.2 nM | 5.94 nM | 4.71 nM | 01B04R3L VHH Mono-Fc (Fc fusion) EVQLVESGGGLVQAGDSLRLSCAASGRTFTTYVMGWFRQAPGKEREFVATIAWSGSTNYKYYADSVKGRFTISRDNAKNTVYLRMNSLKPEDTAVYYCAASTVLTDPRRLNEYANWGQGTLVTVSSSPAPELLGGPSVFLFPPKPKDTLMISRTPEVTCVVVDVSHEDPEVKFNWYVDGVEVHNAKTKPREEQYNSTYRVVSVLTVLHQDWLNGKEYKCKVSNKALPAPIEKTISKAKGQPREPQVYTKPPSREEMTKNQVSLSCLVKGFYPSDIAVEWESNGQPENNYKTTVPVLDSDGSFRLASYLTVDKSRWQQGNVFSCSVMHEALHNHYTQKSLSLSPGK |
| 5.77 nM | 5.71 nM | 10 nM | 4.27 nM | 01G09R3LS VHH Mono-Fc (Fc fusion) EVQLVESGGGLVQAGDSLRLSCAASGRTFPTYAMGWFRQAPGKEREFVATIRWSGSTQYKYYADFVKGRFTISRDNAKNTVYLQMDSLKPEDTAVYYCAATTLLTDPRALNAYAYWGQGTQVTVSSSPAPELLGGPSVFLFPPKPKDTLMISRTPEVTCVVVDVSHEDPEVKFNWYVDGVEVHNAKTKPREEQYNSTYRVVSVLTVLHQDWLNGKEYKCKVSNKALPAPIEKTISKAKGQPREPQVYTKPPSREEMTKNQVSLSCLVKGFYPSDIAVEWESNGQPENNYKTTVPVLDSDGSFRLASYLTVDKSRWQQGNVFSCSVMHEALHNHYTQKSLSLSPGK |
| 28.6 nM | 8.93 nM | 10.1 nM | 6.85 nM | 01A07R3LS VHH Mono-Fc (Fc fusion) QVQLVESGGGLVQAGDSLRLSCAASGRTFPTYAMGWFRQAPGKEREFVATIRWSGSTQYKYYADFVKGRFTISRDNAKNTVYLQMDSLKPEDTAVYYCAATTLLGDPRALNEYAYWGQGTQVTVSSSPAPELLGGPSVFLFPPKPKDTLMISRTPEVTCVVVDVSHEDPEVKFNWYVDGVEVHNAKTKPREEQYNSTYRVVSVLTVLHQDWLNGKEYKCKVSNKALPAPIEKTISKAKGQPREPQVYTKPPSREEMTKNQVSLSCLVKGFYPSDIAVEWESNGQPENNYKTTVPVLDSDGSFRLASYLTVDKSRWQQGNVFSCSVMHEALHNHYTQKSLSLSPGK |
| 2.95 nM | 10.4 nM | 6.14 nM | 24.9 nM | 01E03R3 VHH Mono-Fc (Fc fusion) QVQLVESGGGLVQTGGSLRLSCAASGRTFSVYRVGWFRQAPGKEREFVAAVIWSGASTYKYAADSVKGRFTISRDNAENTVYLQMNSLKPEDTAVYYCAADPLGLPGPDVRVEGGYRHWGQGTLVTVSSSPAPELLGGPSVFLFPPKPKDTLMISRTPEVTCVVVDVSHEDPEVKFNWYVDGVEVHNAKTKPREEQYNSTYRVVSVLTVLHQDWLNGKEYKCKVSNKALPAPIEKTISKAKGQPREPQVYTKPPSREEMTKNQVSLSCLVKGFYPSDIAVEWESNGQPENNYKTTVPVLDSDGSFRLASYLTVDKSRWQQGNVFSCSVMHEALHNHYTQKSLSLSPGK |
